Data: patent US20130012436A1 (Bristol-Myers Squibb, published 2013)
One block for each binder: values may come before it.

What was measured:
human IL-12 = molecular target: T1, human IL-12 (human, UniProt P29459 23-219; P29460 23-328); experiment: SPR, Adnectin captured on immobilized anti-His antibody
T1 construct: heterodimeric cytokine; also called recombinant human IL-12
T1 sequence (looked up) 1: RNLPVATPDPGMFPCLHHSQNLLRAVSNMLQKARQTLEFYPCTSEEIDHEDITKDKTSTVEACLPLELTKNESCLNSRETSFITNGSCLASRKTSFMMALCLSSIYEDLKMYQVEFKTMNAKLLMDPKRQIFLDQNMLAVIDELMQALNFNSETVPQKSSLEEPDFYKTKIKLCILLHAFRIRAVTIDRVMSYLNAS
T1 sequence (looked up) 2: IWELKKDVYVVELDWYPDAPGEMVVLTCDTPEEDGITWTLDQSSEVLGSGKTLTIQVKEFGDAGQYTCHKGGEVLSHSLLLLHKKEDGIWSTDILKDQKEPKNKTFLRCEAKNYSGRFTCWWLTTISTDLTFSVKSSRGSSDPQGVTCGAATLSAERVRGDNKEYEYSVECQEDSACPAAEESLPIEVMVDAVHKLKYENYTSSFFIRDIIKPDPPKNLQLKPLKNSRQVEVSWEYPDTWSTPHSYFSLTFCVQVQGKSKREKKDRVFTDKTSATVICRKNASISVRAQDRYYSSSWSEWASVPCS
Protocol: Adnectins listed in Table 2 as well as ATI001016 were used to examine the biochemical selectivity towards IL-23/IL-12. The binding analysis involved the capture of anti-IL-23 Adnectins on immobilized anti-His antibody followed by flow of IL-23 or IL-12 over the Adnectin. The selectivity of the Adnectins for IL-23 was assessed by comparing the binding signal for a 100 fold higher concentration of IL-12 over IL-23.

human IL-23 [1] = molecular target: T2, human IL-23 (human, UniProt Q9NPF7 20-189; P29460 23-328); experiment: SPR (ProteOn XPR), human IL-23 directly immobilized, 25 C
T2 construct: also called hIL-23; human recombinant IL-23
T2 sequence (looked up) 1: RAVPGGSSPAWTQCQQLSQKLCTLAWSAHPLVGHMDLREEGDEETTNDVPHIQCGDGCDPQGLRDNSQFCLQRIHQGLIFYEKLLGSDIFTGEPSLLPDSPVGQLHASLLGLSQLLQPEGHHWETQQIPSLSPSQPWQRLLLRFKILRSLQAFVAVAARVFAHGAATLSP
T2 sequence (looked up) 2: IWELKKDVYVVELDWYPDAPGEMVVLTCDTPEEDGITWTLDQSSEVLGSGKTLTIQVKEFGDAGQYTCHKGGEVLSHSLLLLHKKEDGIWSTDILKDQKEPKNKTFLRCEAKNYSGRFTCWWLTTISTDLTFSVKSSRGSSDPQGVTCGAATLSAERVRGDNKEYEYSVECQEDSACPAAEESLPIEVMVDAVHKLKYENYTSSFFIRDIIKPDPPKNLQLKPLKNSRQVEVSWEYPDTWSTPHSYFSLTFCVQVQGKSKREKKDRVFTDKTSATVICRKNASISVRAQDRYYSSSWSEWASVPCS
Protocol: (§1) The binding characteristics were characterized by Surface Plasmon Resonance (SPR). Human IL-23 was immobilized at two to four levels in one dimension of a ProteOn XPR (Bio-Rad) chip surfaces and exposed to 6 different concentrations of anti-IL-23 adnectins in the other dimension of the same SPR chip surface. This allowed kinetic determination in the absence of regeneration. Duplicate chips were used for kinetic determinations at 25° C. and 37° C. Evaluation of the kinetic parameters was performed using the Langmuir interaction model and constant parameter fitting with the ProteOn Manager software.
(§2) Even at 37° C. the off rates were close to the limit of detection for SPR technologies so it is possible that the reported dissociation constant measurements are under-estimates.

human IL-23 [2] = molecular target: T2, human IL-23; experiment: KinExA, solution phase, adnectin titrated, unbound IL-23 captured on non-PEGylated ATI001045 matrix
Protocol: The solution affinity of ATI001045 and ATI001047 for human IL-23 was also measured using an alternate format in the KinExA. Duplicate titrations of adnectins were performed for each of three (ATI001045) or single (ATI001047) concentrations of human IL-23 (quadruplicate for the lowest concentration). The relative unbound human IL-23 concentration was measured by capture on a non-PEGylated ATI001045 solid matrix followed by detection with a fluorescently labeled antibody that recognizes the p40 subunit of hIL-23.

human IL-23 [3] = molecular target: T2, human IL-23; experiment: cell-based or functional assay
human IL-23 [4] = molecular target: T2, human IL-23; experiment: SPR (ProteOn XPR), human IL-23 directly immobilized, 37 C
Protocol: as §1, §2

human IL-23 [5] = molecular target: T2, human IL-23; experiment: KinExA, solution phase, hIL-23 titrated, unbound ATI001045 captured on IL-23 matrix
Protocol: The solution affinity of ATI001045 for human IL-23 was measured using a Kinetic Exclusion Assay (KinExA). In one format duplicate titrations of hIL-23 were performed for each of three concentrations. The relative unbound ATI001045 concentration was measured by capture on a human IL-23 solid matrix followed by detection with a fluorescently labeled antibody that recognizes the Adnectin scaffold. Due to technical limitations, the lowest concentration that could be tested was 0.75 nM.

human serum albumin [6] = molecular target: T3, human serum albumin (human, UniProt P02768 25-609); experiment: SPR, HBS-P buffer
T3 construct: also called HSA

rhesus serum albumin [7] = molecular target: T4, rhesus serum albumin (rhesus, UniProt Q28522 17-600); experiment: SPR, HBS-P buffer
T4 construct: also called RhSA

human serum albumin [8] = molecular target: T3, human serum albumin; experiment: SPR, HBS-P buffer, 25 C
rhesus serum albumin [9] = molecular target: T4, rhesus serum albumin; experiment: SPR, HBS-P buffer, 25 C
murine serum albumin [10] = molecular target: T5, murine serum albumin (mouse, UniProt P07724 25-608); experiment: SPR, HBS-P buffer, 25 C
T5 construct: also called MuSA; mouse serum albumin

human serum albumin [11] = molecular target: T3, human serum albumin; experiment: SPR, HBS-P buffer, 37 C
rhesus serum albumin [12] = molecular target: T4, rhesus serum albumin; experiment: SPR, HBS-P buffer, 37 C
human serum albumin [13] = molecular target: T3, human serum albumin; experiment: SPR, MES buffer, pH 5.5
rhesus serum albumin [14] = molecular target: T4, rhesus serum albumin; experiment: SPR, MES buffer, pH 5.5
human serum albumin [15] = molecular target: T3, human serum albumin; experiment: SPR, MES buffer, pH 7.4
rhesus serum albumin [16] = molecular target: T4, rhesus serum albumin; experiment: SPR, MES buffer, pH 7.4
rat serum albumin = rat serum albumin (rat, UniProt P02770 25-608); experiment: SPR and direct binding ELISA
murine serum albumin [17] = molecular target: T5, murine serum albumin; experiment: SPR, albumin captured on CM5 chip
Protocol: (§3) The kinetics of selected SABA clones purified from HTPP and/or midscaled material were determined by capturing the respective serum albumin (HSA/RhSA/MuSA) on the surface of a Biasensor CM5 chip and flowing a concentration series of SABAs over both the reference flow cell and the captured albumins. In addition, binding to albumin was carried out under various pH conditions ranging from pH 5.5 to pH 7.4. […] SABA1.1 fits biochemical criteria for pH resistance and affinity/kinetics down to pH 5.5.

human serum albumin [18] = molecular target: T3, human serum albumin; experiment: SPR (Biacore), albumin captured on CM5 chip, SABA flowed
Protocol: as §3, with “5.5. […]” for “5.5.”

rhesus serum albumin [19] = molecular target: T4, rhesus serum albumin; experiment: as above
Protocol: as §3, with “5.5. […]” for “5.5.”

T3 sequence (P02768 25-609 limits assumed): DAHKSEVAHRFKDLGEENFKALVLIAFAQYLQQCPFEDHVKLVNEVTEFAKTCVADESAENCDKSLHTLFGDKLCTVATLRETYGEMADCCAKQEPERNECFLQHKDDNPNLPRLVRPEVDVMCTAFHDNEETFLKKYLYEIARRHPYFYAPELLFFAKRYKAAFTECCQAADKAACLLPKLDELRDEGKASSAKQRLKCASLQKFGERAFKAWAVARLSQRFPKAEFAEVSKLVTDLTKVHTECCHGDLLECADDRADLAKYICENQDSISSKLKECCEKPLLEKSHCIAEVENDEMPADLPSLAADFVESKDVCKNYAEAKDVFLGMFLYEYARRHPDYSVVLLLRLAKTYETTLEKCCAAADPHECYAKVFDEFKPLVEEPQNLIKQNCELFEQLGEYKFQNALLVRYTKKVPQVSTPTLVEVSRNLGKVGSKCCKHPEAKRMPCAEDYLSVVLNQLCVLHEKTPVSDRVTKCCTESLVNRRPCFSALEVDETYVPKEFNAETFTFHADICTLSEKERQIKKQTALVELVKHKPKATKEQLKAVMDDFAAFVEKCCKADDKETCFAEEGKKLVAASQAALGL
T4 sequence (Q28522 17-600 limits assumed): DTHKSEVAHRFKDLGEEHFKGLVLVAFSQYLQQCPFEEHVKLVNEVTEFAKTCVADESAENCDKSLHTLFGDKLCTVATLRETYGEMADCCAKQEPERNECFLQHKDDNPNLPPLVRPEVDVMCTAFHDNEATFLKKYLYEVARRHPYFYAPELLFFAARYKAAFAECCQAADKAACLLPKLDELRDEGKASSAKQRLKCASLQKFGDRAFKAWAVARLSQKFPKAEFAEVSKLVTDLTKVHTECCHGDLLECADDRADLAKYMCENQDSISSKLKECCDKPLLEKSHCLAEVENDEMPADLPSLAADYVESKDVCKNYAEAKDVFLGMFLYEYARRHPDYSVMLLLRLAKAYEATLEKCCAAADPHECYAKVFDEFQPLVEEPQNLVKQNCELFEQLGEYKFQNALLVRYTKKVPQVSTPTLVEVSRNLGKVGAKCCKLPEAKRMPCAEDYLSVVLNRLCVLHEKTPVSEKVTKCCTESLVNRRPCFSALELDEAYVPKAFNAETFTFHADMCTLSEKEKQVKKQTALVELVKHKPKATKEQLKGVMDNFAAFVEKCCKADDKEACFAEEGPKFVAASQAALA
Sequence of rat serum albumin (P02770 25-608 limits assumed): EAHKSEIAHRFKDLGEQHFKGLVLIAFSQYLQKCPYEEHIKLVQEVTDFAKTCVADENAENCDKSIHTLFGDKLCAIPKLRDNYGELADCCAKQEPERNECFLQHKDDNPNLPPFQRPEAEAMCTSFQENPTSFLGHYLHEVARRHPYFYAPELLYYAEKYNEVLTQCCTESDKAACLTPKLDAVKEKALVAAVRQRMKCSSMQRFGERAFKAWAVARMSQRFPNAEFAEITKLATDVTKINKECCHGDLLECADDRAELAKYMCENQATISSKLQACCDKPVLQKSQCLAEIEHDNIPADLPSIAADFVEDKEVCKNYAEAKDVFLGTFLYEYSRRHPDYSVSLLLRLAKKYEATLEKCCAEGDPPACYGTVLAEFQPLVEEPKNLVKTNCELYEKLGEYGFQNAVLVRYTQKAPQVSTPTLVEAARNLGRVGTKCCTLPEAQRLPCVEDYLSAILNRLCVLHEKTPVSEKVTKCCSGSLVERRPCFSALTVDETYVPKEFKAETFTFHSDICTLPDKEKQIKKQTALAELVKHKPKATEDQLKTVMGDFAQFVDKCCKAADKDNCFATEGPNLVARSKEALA

binding result (human IL-12): no binding (tested: 1 µM)
B1: ATI001016 (designed binder)
chain: MGVSDVPRDLEVVAATPTSLLISWGHYPLHVRYYRITYGETGGNSPVQEFTVPSRKYTATISGLKPGVDYTITVYAVTYYKEANYREIPISINYRTGSGC
modifications: pegylated at the C-terminal GSGC linker (Cys)
notes: not shown: his-tag

binding result (murine serum albumin [17]): no binding
Kd (human serum albumin [18]): 47.2 nM
koff (human serum albumin [18]): 0.000457 s⁻¹
Kd (rhesus serum albumin [19]): 778 nM
koff (rhesus serum albumin [19]): 0.00545 s⁻¹
B5: SABA1.1 (designed binder)
chain: MGVSDVPRDLEVVAATPTSLLISWHSYYEQNSYYRITYGETGGNSPVQEFTVPYSQTTATISGLKPGVDYTITVYAVYGSKYYYPISINYRTEIDKPSQHHHHHH

Continued, binder first:

B2: ATI001047 (designed binder)
chain: MGVSDVPRDLEVVAATPTSLLISWGHYPLHVRYYRITYGETGGNSPVQEFTVPPRSHTATISGLKPGVDYTITVYAVTYYAQENYKEIPISINYRTGSGC
modifications: pegylated at the C-terminal GSGC linker (Cys)
Kd (human IL-23 [1]): 1.6 nM
koff (human IL-23 [1]): 2e-05 s⁻¹
kon (human IL-23 [1]): 13000 M⁻¹ s⁻¹
Kd (human IL-23 [2]): 0.0363 nM

B3: ATI001045 (designed binder)
chain: MGVSDVPRDLEVVAATPTSLLISWGHYPLHVRYYRITYGETGGNSPVQEFTVPSRKYTATISGLKPGVDYTITVYAVTYYKEANYREIPISINYRTGSGC
modifications: pegylated at the C-terminal GSGC linker (Cys)
IL-17 production by human T cells, EC50 (human IL-23 [3]): 2 nM
Kd (human IL-23 [1]): 0.17 nM
koff (human IL-23 [1]): 2.5e-05 s⁻¹
kon (human IL-23 [1]): 150000 M⁻¹ s⁻¹
Kd (human IL-23 [4]): 0.27 nM
koff (human IL-23 [4]): 5.5e-05 s⁻¹
kon (human IL-23 [4]): 203000 M⁻¹ s⁻¹
Kd (human IL-23 [5]): 0.051 nM
Kd (human IL-23 [2]): 0.0094 nM

B4: SABA1.2 (designed binder)
chain: MGVSDVPRDLEVVAATPTSLLISWHSYYEQNSYYRITYGETGGNSPVQEFTVPYSQTTATISGLKPGVDYTITVYAVYGSKYYYPISINYRTEIEDEDEDEDED
notes: core 1 with (ED)5 extension
fold increase in affinity at 37 C against 25 C (human serum albumin [6]): ~2 fold
affinity at 37 C relative to 25 C (rhesus serum albumin [7]): 0.5 fold
Kd (human serum albumin [8]): 55.3 nM
koff (human serum albumin [8]): 0.000443 s⁻¹
kon (human serum albumin [8]): 8210 M⁻¹ s⁻¹
Kd (rhesus serum albumin [9]): 580 nM
koff (rhesus serum albumin [9]): 0.00378 s⁻¹
kon (rhesus serum albumin [9]): 6600 M⁻¹ s⁻¹
binding result (murine serum albumin [10]): no binding (tested: up to 1 µM)
Kd (human serum albumin [11]): 24.1 nM
koff (human serum albumin [11]): 0.000815 s⁻¹
kon (human serum albumin [11]): 33800 M⁻¹ s⁻¹
Kd (rhesus serum albumin [12]): 977 nM
koff (rhesus serum albumin [12]): 0.0185 s⁻¹
kon (rhesus serum albumin [12]): 18900 M⁻¹ s⁻¹
Kd (human serum albumin [13]): 28.6 nM
koff (human serum albumin [13]): 0.00027 s⁻¹
kon (human serum albumin [13]): 9440 M⁻¹ s⁻¹
Kd (rhesus serum albumin [14]): 359 nM
koff (rhesus serum albumin [14]): 0.00272 s⁻¹
kon (rhesus serum albumin [14]): 7570 M⁻¹ s⁻¹
Kd (human serum albumin [15]): 41.9 nM
koff (human serum albumin [15]): 0.000388 s⁻¹
kon (human serum albumin [15]): 9260 M⁻¹ s⁻¹
Kd (rhesus serum albumin [16]): 479 nM
koff (rhesus serum albumin [16]): 0.00295 s⁻¹
kon (rhesus serum albumin [16]): 6160 M⁻¹ s⁻¹
binding result (rat serum albumin): no binding (tested: 1 µM)
